Assay results reported in the DeepSol protein solubility set.

Assay: soluble on expression in E. coli; label from the status in PepcDB or PDB records

Row | Sequence | soluble on expression in E. coli
1 | MIYQPDENRYHTMEYRRCGRSGVKLPAISLGLWHNFGDTTRVENSRALLQRAFDLGITHFDLANNYGPPPGSAECNFGRILQEDFLPWRDELIISTKAGYTMWDGPYGDWGSRKYLIASLDQSLKRMGLEYVDIFYHHRPDPETPLKETMKALDHLVRHGKALYVGISNYPADLARQAIDILEDLGTPCLIHQPKYSLFERWVEDGLLALLQEKGVGSIAFSPLAGGQLTDRYLNGIPEDSRAASGSRFLKPEQITADKLEKVRRLNELAARRGQKLSQMALAWVLRNDNVTSVLIGASKPSQIEDAVGMLANRRFSAAECAEIDAILEGRF | not soluble
2 | MCSISRGKLSTVLKSTSSCIFENLAYEEHIFRTHNVAQNGEILLMWSNRPAVVIGRHQNPWIEVNIPYANKNNIQIVRRHSGGGTVYHDLGNLNISLLTTHAQHCRPKNLKFISDALNQQFSVKIVPNKRDDMELHPGERKCSGTAARIARGQAYHHLTLLVGADLQVLSKSLKSPWRDKIESNATRSVRAPAVGFLKQDDANANVEQSKLAIVEAYRKLFEESHIKTVNVAEEVKKNAEISKIFDELKAWKWIYGKSPKFQYSRENKSIIEMMRTAHKDREPWRDIRRMSKWQGVRVCDEPSPWYMSIPTPFSQFHNVLPEEQEEMVFTELKLFLVGNQTENIRIDEYDKHDLPISILANISFDPFIRSELERFHDILVTVATIKICCYAITHDSVTFSSISSAVASTIEKKVNGFITKICTKLSGSTEANQQMNQLLREMHTIHESLNFYNGIVKSIYLDQLIGGQVLSLLDSKRRHVFSGNVVQNLDDVFQAGWKVFARSIGRLVCKFEADHMDYEFVIWSTKQMTDSQCKTLVPSNPSRQIKSSRYVVIESLCPDFFKKYLDILVRCAEFGDSAKSDSSLRRSTSKKINESESVESVMEDVRNVDWSNLDVATTVRMLVQFSRKESACLLREITSATNVDQAIRDIHDLLIKGSCAHDVMLFGLKADILQKPIDEVGNIRMKKLTNDVLGAAAEKHHPFWKYFSFVIDKQNVFEMLGQRTSLGGNADNLRDNVTPMLFECISVKMDCPIEIEPIISMKAVFILTPVFRIWIQLHVASYTIANYRDSIRGQMPSRSLGDIAMKKHLMHALDAEISSIKQKWVGYVDLLINLYYERIQKAASLDEYTECQDILASDVTNMMGISELSQLENIKDILNIIWNYDNADSNLADLIADFEEVQSRARMDVVVA | not soluble
3 | MGSDKIHHHHHHMKIGIVGLGRVGSSTAFALLMKGFAREMVLIDVDKKRAEGDALDLIHGTPFTRRANIYAGDYADLKGSDVVIVAAGVPQKPGETRLQLLGRNARVMKEIARNVSKYAPDSIVIVVTNPVDVLTYFFLKESGMDPRKVFGSGTVLDTARLRTLIAQHCGFSPRSVHVYVIGEHGDSEVPVWSGAMIGGIPLQNMCQICQKCDSKILENFAEKTKRAAYEIIERKGATHYAIALAVADIVESIFFDEKRVLTLSVYLEDYLGVKDLCISVPVTLGKHGVERILELNLNEEELEAFRKSASILKNAINEITAEENKHQNTSG | not soluble
4 | MGSDKIHHHHHHMKVSADIGALVERRKQGYSLEAPFYQSEEIFALDMEAIFRKHWIQVAVEPDVPEPGDYITVELGHDSILVVRDDDMQVRAFHNVCRHRGARLCNEDKGTVGNIVCPYHSWTYNLTGDLMFAEHMGEKFDRCKHSLKSVHVQNLAGLIFVCLADEPPADFAAMRAAMEPYLLPHDLPNTKIAAQVDIIEEGNWKLTMENNRECYHCVANHPELTISLYEYGFGYQQSPANAEGMEAFEKTCIARAAQWEALNLPSAEIERLLERTGFRTQRLPLDRSGESQTLDAKVASKKLLGKFEQADLGGLSFWTQPNSWHHFMSDHIVTFSVIPLSAGKTLVRTKWLVHKDAQEGVDYDVANLTAVWNATNDQDRVLVEYSQRGSASSAYEPGPYSPFTEGLVEKFSAWYIRRLAEHVGA | not soluble
5 | MKKEIKFSLMYRDMWQSSGKYQPRKDQLERIAPVIVEMGCFARVETNGGAFEQVNLLYGENPNKAVRAFTKPLNEAGIQTHMLDRGLNGLRMFPVPADVRRLMYKVKKAQGVDITRIFDGLNDARNIIPSIKYALEAGMIPQATLCITFSPVHTVEYYSNLADELIAAGAPEICLKDMAGIGRPHFLGQLVKSIKTKHPDVIIEYHGHSGPGFSVASMLEVCENGADIIDVAMEPISWGKVHPDVITIQQMLKDAGFKVPEINMDAYMKARSLTQEFIDDFLGYFMDPSNKETSSLLVGCGLPGGMMGSMMADLKGVHAGINMFLKGKGEPEMTIDQLLVRLFQEVEYVWPRLGYPPLVTPFSQYVKNVALMNVYNMIRGEGRWQAIDQNTWGMILGKSGRLPGKLDPEIIALAKEKGMEFSDADPQQFYPDALDEFRKEMDQNGWEYGPDDEELFELAMHDRQYRDYKSGVAKERFNADLDKAKADRMAKQGYSDEDIKKAKRAGCDPIVAPCSGRLYWEIDTEEQSIAPAIGAEYRTGQPFCYIENQFGYIEKVYCTFTGRITEVVAQGTVVKKGDEIAYLRTAEKEIMWEGANEHIVRVETMPEPRKRITKSAQKN | not soluble
6 | MRDIDGGTMGYRVGVDIGGSFTDFAVFDEDNGEIKSLKVFSRPDQPGEEVIAGVRMLGERYGIQPEQITYFTHGTTVGINTVIQRKGLKLALFTTENFSDVLELARLKTPDMYHLLSRRPAPLVKRSMVFGIAERMGPDGTVRAPLDEASVERAVRQALDAGAEGIVVSLLHAYRNPAHELRVREIAEALA | not soluble
7 | MVARIYRPAKTAMQSGKAKTDQWLLEYEPEKPRVVEPLMGYTSSGDMKSQIRLFFASQEEAVAYATRNDIPYRLMEPHEPKRRKVSYSDNFRFDRPQPWTHLEHHHHHH | not soluble
8 | MGSDKIHHHHHHMGLALCGAAAQAQEKPNFLIIQCDHLTQRVVGAYGQTQGCTLPIDEVASRGVIFSNAYVGCPLSQPSRAALWSGMMPHQTNVRSNSSEPVNTRLPENVPTLGSLFSESGYEAVHFGKTHDMGSLRGFKHKEPVAKPFTDPEFPVNNDSFLDVGTCEDAVAYLSNPPKEPFICIADFQNPHNICGFIGENAGVHTDRPISGPLPELPDNFDVEDWSNIPTPVQYICCSHRRMTQAAHWNEENYRHYIAAFQHYTKMVSKQVDSVLKALYSTPAGRNTIVVIMADHGDGMASHRMVTKHISFYDEMTNVPFIFAGPGIKQQKKPVDHLLTQPTLDLLPTLCDLAGIAVPAEKAGISLAPTLRGEKQKKSHPYVVSEWHSEYEYVTTPGRMVRGPRYKYTHYLEGNGEELYDMKKDPGERKNLAKDPKYSKILAEHRALLDDYITRSKDDYRSLKVDADPRCRNHTPGYPSHEGPGAREILKRK | not soluble
9 | MGSDKIHHHHHHMKVKVGVVGATGEVGRTMVKVLEEFNVPVTELRLFASERSVGKEIEFKGEKFKVELLTEESMKWKCDYFLFSAGASVSRKFAPIAAENGVTVIDNSSAFRMEKEIPLVVPEVNAYLLKGYTGIIANPNCSTIQMILSIYKLHEVYGIEEIFVSTYQSVSGAGHKGIEELLAQERGENVMKVFPKPIHRNVIPLIGDIQENLFSQEEMKMVNETRKILNDYSIRVYPTTVRVPVLYGHSEAIMVRLKKPYESLEKVREVIASGEDVVVTDDLITPVDVAGKNETYVCRLRATDERSILFWNVADNIRVGAATNAVRILLKHAEMNGKV | not soluble
10 | MGSDKIHHHHHHMTITEKRKDFILNSWIKISDDCLKEYLSRELELTDKGQVKSTTTNIITAIVNPDYCVSHKILNGSVFFDTCSQTIRLIGSIKGESEVNLKAPRKWTDQLTNLLGVEIEMNFGIKYSKGRMEEAVIFIANKRRVNLPKLYMKSLKYDGEDYISKLLPKYLGVDDTALNRWIMEHMLIGMVNRVFYPGCKFDEIMVLTGEQGVGKTSFIEKLALLPDWYCSLNNIKGKDAVSNLVGKIVVELEEFVALKNAKTADEAKLFISTRTSTVRLSYERFSADVDRTCIMIATTNDMTFLGDFSGERRYLPVQVHKEKVGLPVMYDQEKFPQLKGVSREEYSKIVKKDFEGAVAQAVYLFENKLYSPVLPVELRKDLNQVIQMHKNENRHVQNFFEFMDWKDTKSDTPNRVCSGEFLSQYPQTNEKVFAELMANEMADKWELEPTDKSRKFKIDGRVRVSKKFYVRKNMPDFIEVTDDIEIPF | not soluble
11 | MSRTAKPQNGRRRFLRDVVRTAGGLAAVGVALGLQQQTARASGVRLRPPGALNENVFASACVRCGQCVQACPYDTLKLATLASGLSAGTPYFVARDIPCEMCEDIPCAKVCPSGALNKDIASIDDSRMGLAVLLDQENCLNFQGLRCDVCYRECPKIDEAITLELDRNMRTGKHARFLPTVHSDACTGCGKCEKVCVLEQPAIKVLPLSLAKGELGHHYRFGWLEGKDGKS | not soluble
12 | GQPMNVTLQDDTQTLQEVVVTALGMKRATKALGYAVTEIKSDELNSNVVNPVSALQGKVAGVEISAGDGGLFGSSKILIRGASTLGSNNQPIYVVDGVILDNAIKNGDADWAANDTDWGNELKNLNPDDFESVSVLKGAAATALYGSRGLNGAVVITTKSGKGKK | not soluble
13 | MGSDKIHHHHHHMKYLLLIPDGMADWEVEELDGRTPLEVAETENMDFLAKEGACGIAKTVPDGFEPGSDVANLTILGVDVRKHYTGRGPIEALARGVKGKLVFRCNLVKVEDGVMVDYSGGRISDEEARKVIEELNRAKPYDFVKFYAGKSYRNLLVINKDFRDDVKTFPPHDITGKEIDKHLPSGGELAELLKELMGWSAEILPEITDKANMIWPWGGGRMPSFPNFGQRYGLRGAMITEVDLLEGIARGMGMEVVQVEGITGYIDTNYRGLVRETARALEEHDFVVLHTEGIDEVGHEGDAELKVRAIELYDSKIVGKLLNKVDLDETRILLLPDHPTPVKVKTHVAEPVPFTLYGRGRDEVKVYTEKSCRRGKFGLVDGLRLMDLLIKK | not soluble
14 | MNRVQSGFRVPARVLNSLAHLQDGLNIFMDPDWRQIRHVDDWALAITMESAELIDSYPWKWWKNVKAQTDMHNVRIEIADILHFSLSGEIQKRTQDEKGADDVALKSLKEMGFFCRPPAHAKSTAASGQRTNGGDGDGDDELLELMFFPLTEVASAVATFRNIIQLASIYRFDLITKGLLLAAQDLDFNLVGYYVAKYTLNQIRQLKGYKEGVYVKVREGVEDNELLHECVQSVSVEDVLNEGTYLKAWEKIACSVFDAFGMPEEERRHAYDWLKSAALDGKG | soluble
15 | MLLDEKALVTLQKLGLTYYGARVYITLVSLGSSDATELSIESEVPRTKIYNVLKRLEAEKWIAVEHTRPIIYTAKYPKDILKEKRVAFNSEINEVSNQLSEVYDKVIDNEVPKVWLLRGMNNITAKTINMIKRAKRDITLLGALYSENEIEQLKEELSYATKKGLHVRVISRQSIKLNNGELDIIKNLSSVIPQIKIGGPEFSKFVIIDDKELLILFSKVEDNILDIDSTIAIWIPNVSIASYQASIFNGIWNGYCQVDRC | not soluble
16 | MGSDKIHHHHHHMMKSIILIVLDGLGDRPGSDLQNRTPLQAAFRPNLNWLASHGINGIMHPISPGIRCGSDTSHMSLLGYDPKVYYPGRGPFEALGLGMDIRPGDLAFRANFATNRDGVIVDRRAGRENKGNEELADAISLDMGEYSFRVKSGVEHRAALVVSGPDLSDMIGDSDPHREGLPPEKIRPTDPSGDRTAEVMNAYLEEARRILSDHRVNKERVKNGRLPGNELLVRSAGKVPAIPSFTEKNRMKGACVVGSPWLKGLCRLLRMDVFDVPGATGTVGSNYRGKIEKAVDLTSSHDFVLVNIKATDVAGHDGNYPLKRDVIEDIDRAMEPLKSIGDHAVICVTGDHSTPCSFKDHSGDPVPIVFYTDGVMNDGVHLFDELSSASGSLRITSYNVMDILMQLAGRSDKFGS | not soluble
17 | EETDESNDMRPLFDTILKYTPAPSGSADETLQLQISQLDYDNYTGRLGIGRILNGRIKPGQTVAVMNHDQQIAQGRINQLLGFKGLERVPLEEAEAGD | not soluble
18 | MSTYDTAVLDDTLVSCLSQLIGAEHIDTLTLEGRFEITRIAAALSGRPGPAPRAILMSGLQGSGKTTLARALEAAGFRRLCPDEEMFRRYGHYGRDFPRGEFRVREAPVLKDIALELQELLTAGHEVVVDHGFWTREERAQWAMTVMEAGGKPVLIYLPVPHEVRWDRIRKRNEQSLVDANSIEFSEEDLLRHAGRFSPPTDDEPHIVYDGQPDSVLADIQLSRHFDALEHHHHHH | not soluble
